Measurements: the supplement of paper PMC9233669
Fewer inactive variants are shown than the library holds.

What was measured:
biotinyl-Ile-oxazolone = test: self-aminoacylation, catalytic enhancement (BIO) (fold over background); higher = more active; k-Seq, kA / k0A0; sequences stand for … in GGGAAUGGAUCCACAUCUACGAAUUC…UUCACUGCAGACUUGACGAAGCUG
Method in brief: (§1)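 Each biotinyl-aminoacyl-oxazolone, at 2–1250 μM, was incubated with mutagenized RNA pools (0.43 μM) carrying a 21-nt variable region. The 50 μL reactions contained HEPES/NaCl/KCl/MgCl2/CaCl2 buffer with 5% acetonitrile at pH 6.9–7.0 and ran for 90 minutes at room temperature. After streptavidin capture, RNA was measured by qPCR in triplicate and by Illumina sequencing, and catalytic enhancement was calculated as median kA over the uncatalyzed rate from a pseudo-first-order fit of per-sequence fraction reacted.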

biotinyl-Phe-oxazolone = test: self-aminoacylation, catalytic enhancement (BFO) (fold over background); higher = more active; k-Seq, kA / k0A0; sequences stand for … in GGGAAUGGAUCCACAUCUACGAAUUC…UUCACUGCAGACUUGACGAAGCUG
Method in brief: as §1

biotinyl-Val-oxazolone = test: self-aminoacylation, catalytic enhancement (BVO) (fold over background); higher = more active; k-Seq, kA / k0A0; sequences stand for … in GGGAAUGGAUCCACAUCUACGAAUUC…UUCACUGCAGACUUGACGAAGCUG
Method in brief: as §1

biotinyl-Trp-oxazolone = test: self-aminoacylation, catalytic enhancement (BWO) (fold over background); higher = more active; k-Seq, kA / k0A0; sequences stand for … in GGGAAUGGAUCCACAUCUACGAAUUC…UUCACUGCAGACUUGACGAAGCUG
Method in brief: as §1

biotinyl-Leu-oxazolone = test: self-aminoacylation, catalytic enhancement (BLO) (fold over background); higher = more active; k-Seq, kA / k0A0; sequences stand for … in GGGAAUGGAUCCACAUCUACGAAUUC…UUCACUGCAGACUUGACGAAGCUG
Method in brief: as §1

biotinyl-Met-oxazolone = test: self-aminoacylation, catalytic enhancement (BMO) (fold over background); higher = more active; k-Seq, kA / k0A0; sequences stand for … in GGGAAUGGAUCCACAUCUACGAAUUC…UUCACUGCAGACUUGACGAAGCUG
Method in brief: as §1

Row | Sequence | self-aminoacylation (biotinyl-Ile-oxazolone) | self-aminoacylation (biotinyl-Phe-oxazolone) | self-aminoacylation (biotinyl-Val-oxazolone) | self-aminoacylation (biotinyl-Trp-oxazolone) | self-aminoacylation (biotinyl-Leu-oxazolone) | self-aminoacylation (biotinyl-Met-oxazolone)
1 | AAGUGUGCUAAUAGCCGCAAG [Fam3.1 aminoacylation ribozyme variant] | 1.81 | 3.94 | 1.48 | 2.61 | 1.2 | 1.49
2 | AAGUGUGCUAAUAGUCGCAUG [Fam3.1 aminoacylation ribozyme variant] | 1.38 | 1.09 | 1.3 | 1.98 | 1.86 | 1.44
3 | AAGUGUGCUAAUAGUCGCUAG [Fam3.1 aminoacylation ribozyme variant] | 1.23 | 0.823 | 0.925 | 0.788 | 0.893 | 0.976
4 | AAGUGUGGUAAUAGUCGCAAG [Fam3.1 aminoacylation ribozyme variant] | 1.43 | 1.5 | 1.16 | 1.15 | 1.48 | 1.15
5 | AAGUUAGCUAAUAGUCCCAAG [Fam3.1 aminoacylation ribozyme variant] | 1.15 | 2.79 | 0.967 | 1.1 | 1 | 1.18
6 | AAGUUAGCUAAUAGUGGCAAG [Fam3.1 aminoacylation ribozyme variant] | 0.718 | 0.615 | 0.648 | 0.543 | 0.554 | 0.809
7 | AAGUUAGCUAAUAGUUGCAAG [Fam3.1 aminoacylation ribozyme variant] | 1.47 | 1.8 | 1.33 | 2.07 | 1.59 | 1.45
8 | AAGUUAGCUAAUAUUCGCAAG [Fam3.1 aminoacylation ribozyme variant] | 1.78 | 2.26 | 1.39 | 1.59 | 1.33 | 1.43
9 | AAGUUCGCUAAUAGUCGCCAG [Fam3.1 aminoacylation ribozyme variant] | 2.33 | 11.6 | 1.81 | 2.27 | 1.79 | 1.84
10 | AAGUUCGCUAAUAGUCGCGAG [Fam3.1 aminoacylation ribozyme variant] | 3.31 | 15.2 | 2.51 | 4 | 2.18 | 2.09
11 | AAGUUCGCUAAUAGUUGCAAG [Fam3.1 aminoacylation ribozyme variant] | 1.52 | 1.71 | 1.22 | 1.12 | 1.33 | 1.47
12 | AAGUUCGCUAUUAGUCGCAAG [Fam3.1 aminoacylation ribozyme variant] | 2 | 2.21 | 1.5 | 1.44 | 2.14 | 1.82
13 | AAGUUGGCUAAUAGGCGCAAG [Fam3.1 aminoacylation ribozyme variant] | 1.71 | 1.49 | 1.23 | 1.19 | 1.41 | 1.14
14 | AAGUUGGCUAAUAGUCGCAUG [Fam3.1 aminoacylation ribozyme variant] | 1.77 | 1.69 | 1.51 | 2 | 2.19 | 1.88
15 | AAGUUGGCUAAUAGUCGUAAG [Fam3.1 aminoacylation ribozyme variant] | 1.49 | 10.7 | 1.37 | 4.1 | 1.14 | 1.33
16 | AAGUUGGCUACUAGUCGCAAG [Fam3.1 aminoacylation ribozyme variant] | 1.65 | 1.58 | 1.76 | 1.42 | 1.86 | 1.2
17 | AAGUUGGCUAGUAGUCGCAAG [Fam3.1 aminoacylation ribozyme variant] | 1.65 | 2.98 | 1.65 | 1.51 | 1.65 | 1.21
18 | AAGUUGGCUAUUAGUCGCAAG [Fam3.1 aminoacylation ribozyme variant] | 2 | 1.55 | 1.49 | 1.85 | 1.62 | 1.36
19 | AAGUUUACUAAUAGUAGCAAG [Fam3.1 aminoacylation ribozyme variant] | 1.54 | 1.97 | 1.22 | 0.98 | 1.17 | 1.28
20 | AAGUUUACUAAUAGUCGCAGG [Fam3.1 aminoacylation ribozyme variant] | 1.55 | 2.36 | 1.34 | 1.61 | 1.6 | 1.25
21 | AAGUUUACUAAUAGUCGCAUG [Fam3.1 aminoacylation ribozyme variant] | 1.49 | 2.25 | 1.13 | 1.68 | 1.34 | 1.25
22 | AAGUUUACUAAUAGUCGCCAG [Fam3.1 aminoacylation ribozyme variant] | 1.42 | 1.61 | 1.21 | 1.31 | 1.24 | 1.23

Row | Sequence | self-aminoacylation (biotinyl-Ile-oxazolone) | self-aminoacylation (biotinyl-Phe-oxazolone) | self-aminoacylation (biotinyl-Val-oxazolone) | self-aminoacylation (biotinyl-Trp-oxazolone) | self-aminoacylation (biotinyl-Leu-oxazolone) | self-aminoacylation (biotinyl-Met-oxazolone)
23 | AAGUUUACUAAUAGUCUCAAG [Fam3.1 aminoacylation ribozyme variant] | 1.15 | 2.39 | 1.29 | 1.23 | 1.11 | 0.844
24 | AAGUUUACUAAUCGUCGCAAG [Fam3.1 aminoacylation ribozyme variant] | 1.64 | 2.66 | 1.46 | 1.35 | 1.55 | 1.13
25 | AAGUUUACUAAUGGUCGCAAG [Fam3.1 aminoacylation ribozyme variant] | 1.59 | 1.64 | 1.1 | 2.06 | 1.47 | 1.28
26 | AAGUUUCCUAAUAGUCGCAAU [Fam3.1 aminoacylation ribozyme variant] | 2.34 | 4.15 | 1.88 | 2.47 | 2.04 | 1.79
27 | AAGUUUCCUAAUAGUCGCAUG [Fam3.1 aminoacylation ribozyme variant] | 2.28 | 2.38 | 1.9 | 2.11 | 1.94 | 1.89
28 | AAGUUUCCUAAUAGUGGCAAG [Fam3.1 aminoacylation ribozyme variant] | 0.838 | 0.605 | 0.902 | 0.634 | 0.642 | 0.752
29 | AAGUUUCCUCAUAGUCGCAAG [Fam3.1 aminoacylation ribozyme variant] | 2.1 | 3.38 | 2.08 | 1.84 | 2 | 1.39
30 | AAGUUUCCUGAUAGUCGCAAG [Fam3.1 aminoacylation ribozyme variant] | 1.67 | 3.33 | 1.54 | 1.49 | 1.69 | 1.69
31 | AAGUUUGAUAAUAGGCGCAAG [Fam3.1 aminoacylation ribozyme variant] | 0.704 | 0.836 | 0.551 | 0.74 | 0.59 | 0.523
32 | AAGUUUGAUAAUAGUCGAAAG [Fam3.1 aminoacylation ribozyme variant] | 0.705 | 1.03 | 0.592 | 0.785 | 0.543 | 0.568
33 | AAGUUUGCAAACAGUCGCAAG [Fam3.1 aminoacylation ribozyme variant] | 0.775 | 1.47 | 0.735 | 0.595 | 0.93 | 0.798
34 | AAGUUUGCAAAUAGUCGCAAC [Fam3.1 aminoacylation ribozyme variant] | 0.917 | 0.731 | 0.838 | 1.01 | 1.01 | 1.07
35 | AAGUUUGCAAAUAGUCGCUAG [Fam3.1 aminoacylation ribozyme variant] | 1.15 | 0.824 | 0.856 | 1.84 | 1 | 0.905
36 | AAGUUUGCAAUUAGUCGCAAG [Fam3.1 aminoacylation ribozyme variant] | 1.08 | 0.786 | 0.898 | 0.6 | 0.909 | 0.922
37 | AAGUUUGCCAAAAGUCGCAAG [Fam3.1 aminoacylation ribozyme variant] | 1.41 | 1.01 | 1.36 | 1.54 | 1.57 | 1.39
38 | AAGUUUGCCAAUAGUCGCCAG [Fam3.1 aminoacylation ribozyme variant] | 1.52 | 12.8 | 1.54 | 2.22 | 2.4 | 2.27
39 | AAGUUUGCCAAUAGUCGCUAG [Fam3.1 aminoacylation ribozyme variant] | 1.15 | 0.897 | 0.926 | 2.08 | 0.951 | 0.716
40 | AAGUUUGCGAAUACUCGCAAG [Fam3.1 aminoacylation ribozyme variant] | 1.36 | 3.35 | 0.993 | 2.24 | 1.4 | 1.13
41 | AAGUUUGCGAAUAGUCGCCAG [Fam3.1 aminoacylation ribozyme variant] | 1.74 | 9.03 | 1.78 | 1.62 | 1.29 | 1.8
42 | AAGUUUGCGAAUAGUCGCUAG [Fam3.1 aminoacylation ribozyme variant] | 1.38 | 3.9 | 1 | 1.4 | 0.918 | 1.45
43 | AAGUUUGCGAAUAGUCGGAAG [Fam3.1 aminoacylation ribozyme variant] | 0.977 | 0.764 | 0.964 | 2.32 | 1.1 | 1.38
